From paper PMC2932728, “The Canine Papillomavirus and Gamma HPV E7 Proteins Use an Alternative Domain to Bind and Destabilize the Retinoblastoma Protein” (PLoS Pathogens, 2010)

Tests used:
pRb = assay: GST pull-down, Western blot with anti-pRb antibody, densitometry; conditions: binding normalized to GSTE7 protein; wild type CPV-2 E7 GST fusion set to 100%; parent: 100
GST HPV16 E7CR1CR2 = molecular target: T1, GST HPV16 E7CR1CR2 (human papillomavirus type 16 (HPV16), UniProt P03129 1-38); assay: pull-down; 5 µg GST fusion protein with 50 µg Jurkat cell nuclear extract, 1 h at 4°C in 20 mM Hepes/150 mM KCl/4 mM MgCl2/1 mM EDTA/0.02% Nonidet P-40/10% glycerol; glutathione-Sepharose beads; Western blot for pRb and GST, densitometry normalised to GSTE7, wild type CPV-2 E7 set to 100%; conditions: one partner purified
T1 construct: E7 protein of human papillomavirus type 16, CR1 and CR2 domains; also called the combined CR domains; source: E. coli BL21pLysS, purified (glutathione-Sepharose)
T1 chain: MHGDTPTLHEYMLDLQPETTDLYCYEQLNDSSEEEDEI

## GST CPV-2 E7 wild type fusion protein S26C
pRb
  percent of parent: 147%

## GST CPV-2 E7 wild type fusion protein S26G
pRb
  percent of parent: 99%

B1: human retinoblastoma tumor suppressor protein pRb (natural protein, human (endogenous in Jurkat), UniProt P06400 1-928, looked up)
chain: MPPKTPRKTAATAAAAAAEPPAPPPPPPPEEDPEQDSGPEDLPLVRLEFEETEEPDFTALCQKLKIPDHVRERAWLTWEKVSSVDGVLGGYIQKKKELWGICIFIAAVDLDEMSFTFTELQKNIEISVHKFFNLLKEIDTSTKVDNAMSRLLKKYDVLFALFSKLERTCELIYLTQPSSSISTEINSALVLKVSWITFLLAKGEVLQMEDDLVISFQLMLCVLDYFIKLSPPMLLKEPYKTAVIPINGSPRTPRRGQNRSARIAKQLENDTRIIEVLCKEHECNIDEVKNVYFKNFIPFMNSLGLVTSNGLPEVENLSKRYEEIYLKNKDLDARLFLDHDKTLQTDSIDSFETQRTPRKSNLDEEVNVIPPHTPVRTVMNTIQQLMMILNSASDQPSENLISYFNNCTVNPKESILKRVKDIGYIFKEKFAKAVGQGCVEIGSQRYKLGVRLYYRVMESMLKSEEERLSIQNFSKLLNDNIFHMSLLACALEVVMATYSRSTSQNLDSGTDLSFPWILNVLNLKAFDFYKVIESFIKAEGNLTREMIKHLERCEHRIMESLAWLSDSPLFDLIKQSKDREGPTDHLESACPLNLPLQNNHTAADMYLSPVRSPKKKGSTTRVNSTANAETQATSAFQTQKPLKSTSLSLFYKKVYRLAYLRLNTLCERLLSEHPELEHIIWTLFQHTLQNEYELMRDRHLDQIMMCSMYGICKVKNIDLKFKIIVTAYKDLPHAVQETFKRVLIKEEEYDSIIVFYNSVFMQRLKTNILQYASTRPPTLSPIPHIPRSPYKFPSSPLRIPGGNIYISPLKSPYKISEGLPTPTKMTPRSRILVSIGESFGTSEKFQKINQMVCNSDRVLKRSAEGSNPPKPLKKLRFDIEGSDEADGSKHLPGESKFQQKLAEMTSTRTRMQKQKMNDSMDTSNKEEK
notes: retinoblastoma protein pRb, human, endogenous in Jurkat cell nuclear extract; also called human pRb; source: endogenous, Jurkat cell nuclear extract
GST HPV16 E7CR1CR2
  fold pRb bound against the HPV16 E7 carboxyl-terminus domain: 6 fold
